In general, stoichiometry N refers to the number of molecules, sites or subunits per partner or assembly.

The values below come from article PMC12262686 (bioRxiv, 2025).

Changes are numbered by the printed parent chain. In names and notes the source's numbering stands. Several values for one entry are separate records, joined by “and”; a condition that tells them apart may be missing. Identical values can stand only once.

T1: Speckle-type POZ protein (SPOP), full-length, wild type (human), O43791
T1 chain: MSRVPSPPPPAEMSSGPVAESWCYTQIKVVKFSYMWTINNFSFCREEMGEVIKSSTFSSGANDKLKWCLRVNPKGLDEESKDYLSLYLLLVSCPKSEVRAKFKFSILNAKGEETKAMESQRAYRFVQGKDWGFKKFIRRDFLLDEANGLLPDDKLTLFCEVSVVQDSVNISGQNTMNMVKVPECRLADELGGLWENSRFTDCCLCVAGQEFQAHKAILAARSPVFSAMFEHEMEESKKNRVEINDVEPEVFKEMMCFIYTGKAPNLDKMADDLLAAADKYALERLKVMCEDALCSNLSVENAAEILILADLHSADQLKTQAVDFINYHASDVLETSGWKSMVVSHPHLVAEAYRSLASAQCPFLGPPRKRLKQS

B1: Speckle-type POZ protein (SPOP), full-length, wild type, O43791 1-374 (natural protein)
chain: T1 chain
B2: SPOP R45W (natural protein)
chain: T1 chain with R45W
B3: SPOP D140N (natural protein)
chain: T1 chain with D140N
B4: SPOP S96R, full-length (natural protein)
chain: T1 chain with S96R
B5: SPOP G128D, full-length (natural protein)
chain: T1 chain with G128D
B6: SPOP W131L (natural protein)
chain: T1 chain with W131L
B7: SPOP E50K (natural protein)
chain: T1 chain with E50K
B8: SPOP R70L (natural protein)
chain: T1 chain with R70L
B9: SPOP M117V (natural protein)
chain: T1 chain with M117V
B10: SPOP M48I (natural protein)
chain: T1 chain with M48I
B11: SPOP E47A (natural protein)
chain: T1 chain with E47A
B12: SPOP R221C (natural protein)
chain: T1 chain with R221C
B13: SPOP Y87F (natural protein)
chain: T1 chain with Y87F
B14: SPOP K129E (natural protein)
chain: T1 chain with K129E
B15: SPOP R99W (natural protein)
chain: T1 chain with R99W
B16: SPOP R121Q (natural protein)
chain: T1 chain with R121Q
B17: SPOP K134N, full-length (natural protein)
chain: T1 chain with K134N
B18: SPOP G128S (natural protein)
chain: T1 chain with G128S
B19: SPOP E47Q (natural protein)
chain: T1 chain with E47Q
B20: SPOP W131G (natural protein)
chain: T1 chain with W131G
B21: SPOP D77E, full-length (natural protein)
chain: T1 chain with D77E
B22: SPOP E47K, full-length (natural protein)
chain: T1 chain with E47K
B23: SPOP E78K, full-length (natural protein)
chain: T1 chain with E78K
B24: SPOP D130E (natural protein)
chain: T1 chain with D130E
B25: SPOP V51E, full-length (natural protein)
chain: T1 chain with V51E

The target of the first data set is T1, Speckle-type POZ protein (SPOP), …. The data set can be described thus: cryo-EM structure. As to conditions: remark: other sources report otherwise.
Consider B1, for which the stoichiometry N is 48 monomers and 56 monomers.

The target in a further data set is BRD3 peptide containing the main SPOP-binding motif of BRD3. The data set can be described thus: fluorescence polarisation.
Settings: not given
Molecule “SPOP K134N, full-length (from UniProt O43791 1-374) (natural protein)” displayed a fold weaker binding than full-length WT of 11 fold.
“SPOP MATH domain K134N (from UniProt O43791 31-161) (domain or fragment)”: the fold weaker binding than the WT MATH domain was found to be 4 fold.

A further data set deals with the molecule itself. The data set can be described thus: negative-stain TEM.
Settings: not given
With B2, the binding result is given as “binds”.
On the same count and under the same terms, in the case of B3 it was “binds”; in that of B4, “binds”; in that of B5, “binds”.
The same measure, in the same setting: with B6 the entry was “binds”.
The same measure, in the same setting: in the case of B7 it was “binds”.
In the case of B8, the binding result was “binds”.
Still for that read-out and setting: with B9 the entry was “binds”; with B10, “binds”.
On to B11, for which the binding result is “binds”.
On the same count and under the same terms, in the case of B12 it was “binds”.
Same read-out and setting: in the case of B13 it was “binds”; in that of B14, “binds”.
On the same count and under the same terms, with B15 the entry was “binds”; with B16, “binds”; with B17, “binds”.
Take B18: the binding result is listed as “binds”.
Same read-out and setting: in the case of B19 it was “binds”; in that of B20, “binds”; in that of B21, “binds”.
Turning to B22, the binding result is listed as “binds”.
Turning to B23, the binding result is listed as “binds”.
Still for that read-out and setting: with B24 the entry was “binds”.
On the same count and under the same terms, in the case of B25 it was “binds”.
